The results in this text go back to US20250043290A1, “RNA SEQUENCES THAT INDUCE FLUORESCENCE OF SMALL MOLECULE FLUOROPHORES, MOLECULAR COMPLEXES, SENSORS, AND METHODS OF USE THEREOF” (CORNELL UNIVERSITY, priority 2021, published 2025).

A short description of data set [1]: Photophysical properties of fluorophores and RNA-fluorophore complexes (Squash study). Type of data set: physicochemical. The procedure: All RNAs used for in vitro studies (except the initial hits from SELEX and the DE2-6 mutants) were purified using 8% denaturing PAGE (7M urea) and eluted in 0.3 M NaOAc (pH 5.2) overnight. The RNA was ethanol precipitated and quantified using absorbance in a NanoDrop 2000 spectrometer. All in vitro RNA properties were measured in 40 mM HEPES-KOH (pH 7.4), 100 mM KCl, 0.5 mM MgCl2 buffer unless specified.
Absorption, excitation, and emission spectra were measured using conditions where the RNA is in excess and the fluorophore is limiting to ensure that no free fluorophore contributes to the absorbance or fluorescence signal (FIGS. 7A-7D).
All quantum yields were determined by comparing each RNA-fluorophore complex with Broccli-DFHBI-1T or Corn-DFHO. All measurements for quantum yield were taken in the presence of excess RNA (10 μM final) compared to the fluorophores (0.2 μM final) to avoid interference from unbound fluorophore. The integral of the emission spectra for each Squash-fluorophore complex was compared with the corresponding integrals for Broccoli or Corn to calculate the quantum yield.

The subject of the next data set is HEK293T cells. The experiment in a line: RNA assemblies of multivalent Corn or Beetroot in cells. Type of data set: cell-based. As to conditions: circular RNA, means±s.d. The procedure: FIGS. 33A-33C provide the dissociation constant (Kd) of Beetroot homodimer. […] These RNAs were incubated at 20° C. for 12 hours and then analyzed using non-denaturing gel electrophoresis (FIG. 33A). The fraction of Beetroot monomer (FIG. 33B) and Beetroot dimer (FIG. 33C) were quantified after SYBR Gold staining. […] The RNA band marked with an asterisk (*) reflects an RNA side product from in vitro transcription. The same side product band was also observed in FIGS. 27B-27C. Quantification shown in […] is based on two independent experiments. FIG. 33D are images showing genetic encoding of simple macromolecular RNA assemblies in cells using Corn when circular RNAs containing 3 and 5 copies of Corn were expressed in HEK293T cells. Clusters of these Corn-containing RNAs were observed as large intracellular puncta. Data shown here is a representative image from three independent cell cultures. Scale bar, 20 μm. FIG. 33E is a graph showing the quantification of the fraction of Corn and Beetroot in the cell that accumulates in puncta. As the valency of Corn increases from three to five, the fraction of Corn participating in the RNA assembly increases from 28±12% to 57±14%. Compared to 5× Corn, a fraction of 27±11% of 5× Beetroot are participating in the Beetroot RNA assembly. Values are means±s.d. FIG. 33F is a graph showing quantification of RNA assembly size in cells. Shown are the size distribution of RNA assemblies created using the indicated multivalent Corn or Beetroot RNA. As the valency of Corn increases from three to five, an increase in the median RNA assembly size was noticed from 0.88±0.37 μm to 1.0±0.54 μm. Compared to 5× Corn, 5× Beetroot assembly has a size of 0.68±0.25 μm. Values are means±s.d.
For to live-cell fluorescence imagining experiments, HEK293T cells were seeded into 35-mm imaging dishes precoated with poly-D-lysine (Mattek Corporation, P35GC-1.5-14C) and mouse laminin I (Cultrex, 3401-010-02) with a cell density of 4.5×10^5 cells per dish. On the next day, HEK293T cells were transfected with DNA plasmids as indicated in figures with fluorescence imaging experiments using FuGENE HD. Transfections were performed according FuGENE HD manufacturer's instructions. HEK293T cells were then cultured for two days before imaging.
Prior to imaging experiments, HEK293T cells were incubated with 1 μl of Hoechst 33342 (Thermo Fisher Scientific, H3570) per 2 ml of imaging media (phenol red-free Dulbeco's modified Eagle's medium (Thermo Fisher Scientific 31053-028) supplemented with 10% fetal bovine serum (Corning 35-010-CV), 100 U ml-1 of penicillin and […] of streptomycin, 1× GlutaMAX (Thermo Fisher Scientific, 35050-061) and 1 mM sodium pyruvate (Thermo Fisher Scientific, 11360-070)). For imaging experiments of RNA-fluorophore complex, HEK293T cells were incubated with imaging media supplemented with a final concentration of 10 μM fluorophore (DFHO or DFAME) and 5 mM MgCl2 for one hour prior to imaging.
For all imaging experiments, an epifluorescence inverted microscope (Nikon Eclipse TE2000-E) was used equipped with a CoolSnap HQ2 CCD camera and a 130-W Nikon mercury lamp. The microscope and camera were controlled using the NIS-Elements Advanced Research software (Nikon). Cells were imaged with a 60× oil objective with a numerical aperture of 1.4 (Nikon) at 37° C. A FITC filter cube (with excitation filter 470±20 nm, dichroic mirror 495 nm (long pass) and emission filter 525±25 nm) was used for imaging GFP-N-peptide. A YFP filter cube (with excitation filter 500±12 nm, dichroic mirror 520 nm (long pass) and emission filter 542±13.5 nm) was used for imaging Corn-DFHO complex. A tetramethylrhodamine filter cube (with excitation filter 560±20 nm, dichroic mirror 585 nm (long pass) and emission filter 630±37.5 nm) was used for imaging mCherry-MCP and Beetroot-DFAME complex.

[2] abbreviates: 40 mM HEPES-KOH (pH 7.4), 100 mM KCl, 0.5 mM MgCl2.

Marks after values point to notes of the source that are not given here.

On to `CC1=N/C(=C\c2cc(F)c(O)c(F)c2)C(=O)N1CC(F)(F)F` [DFHBI-1T, (Z)-4-(3,5-difluoro-4-hydroxybenzylidene)-2-methyl-1-(2,2,2-trifluoroethyl)-1H-imidazol-5(4H)-one], for which, in data set [1] (setting [2]), the Emission maximum worked out at 495 nm and the Excitation maximum is listed as 426 nm. The molecule further registered a Fluorescence quantum yield in data set [1] (compared with Broccoli-DFHBI-1T or Corn-DFHO) of 0.00098. Also, in data set [1] (free DFHBI-1T, at 452 nm), the Extinction coefficient is on record as 19,900* M^−1cm^−1. The “Brightness (extinction coefficient × quantum yield)” value in data set [1] (relative to Broccoli) was 0.12.

B1: 3× Corn: circular RNA containing 3 copies of Corn, SEQ ID NO: 100 (nucleic acid)
chain: AACCAUGCCGACUGAUGGCAGUACCGUAGGCGAAUUCUUGCCAUGUGUAUGUGGGAGGCCCGGAUAGCUCAGUCGGUAGAGCAGCGGCCGCGCGAUUCGAGGAAGGAGGUCUGAGGAGGUCACUGAAUCGCGCGGCCGCGGGUCCAGGGUUCAAGUCCCUGUUCGGGCCUCCCACAUACUCUGAUGAUCCAAAACUGCCCGAGGAUCAUUCAUGGCAAACUCGACGUUCGUCAGACUCCUCGCGAUGUCUAUGCGGGAGGCCCGGAUAGCUCAGUCGGUAGAGCAGCGGCCGCGCGAUUCGAGGAAGGAGGUCUGAGGAGGUCACUGAAUCGCGCGGCCGCGGGUCCAGGGUUCAAGUCCCUGUUCGGGCCUCCCGCAUAGUCUGAUCAUCCAAAACUGCCCGAGGGGAUGAUUCAUCGCGAAUCGCGACGAUCGUCACUACCGGCGUCUGACGAACGUCGAACUCGCCGUGUGUGUGUAGGAGGCCCGGAUAGCUCAGUCGGUAGAGCAGCGGCCGCGCGAUUCGAGGAAGGAGGUCUGAGGAGGUCACUGAAUCGCGCGGCCGCGGGUCCAGGGUUCAAGUCCCUGUUCGGGCCUCCUACACACUCUGACGAUCCAAAACUGCCCGAGGGGAUCGUUCACGGCGAACUCACGUCGGUGGAGCUAGCGCCUACGGUACUGCCAUCAGUCGGCGUGGACUGUAG
modifications: circular
On to B1, for which, in the data set with HEK293T cells, the “Fraction of RNA in the cell that accumulates in puncta” value (shortened to “Fraction of RNA”) turned out to be 28±12% and the RNA assembly size is given as 0.88±0.37 μm.

B2: 5× Corn: circular RNA containing five Corn monomers, same as 5X Corn-MS2, SEQ ID NO: 101 (nucleic acid)
chain: AACCAUGCCGACUGAUGGCAGUACCGUAGGCGAAUUCUUGCCAUGUGUAUGUGGGAGGCCCGGAUAGCUCAGUCGGUAGAGCAGCGGCCGCGCGAUUCGAGGAAGGAGGUCUGAGGAGGUCACUGAAUCGCGCGGCCGCGGGUCCAGGGUUCAAGUCCCUGUUCGGGCCUCCCACAUACUCUGAUGAUCCAAAACUGCCCGAGGAUCAUUCAUGGCAAACUCGACGUUCGUCAGACUCCUCGCGAUGUCUAUGCGGGAGGCCCGGAUAGCUCAGUCGGUAGAGCAGCGGCCGCGCGAUUCGAGGAAGGAGGUCUGAGGAGGUCACUGAAUCGCGCGGCCGCGGGUCCAGGGUUCAAGUCCCUGUUCGGGCCUCCCGCAUAGUCUGAUCAUCCAAAACUGCCCGAGGGGAUGAUUCAUCGCGAAUCGCGACGAUCGUCACUACCGGUUCACUUUGUAGACCAGGCUGGUGUACAACUUGCGACUUUGCCAUGUGUAUGUGGGAGGCCCGGAUAGCUCAGUCGGUAGAGCAGCGGCCGCGCGAUUCGAGGAAGGAGGUCUGAGGAGGUCACUGAAUCGCGCGGCCGCGGGUCCAGGGUUCAAGUCCCUGUUCGGGCCUCCCACAUACUCUGAUGAUCCACGCGUAACAUGAGGAUCACCCAUGUCGAGGUACCAUCAUUCAUGGCAAAGUCGCAAGUAUCGGUCAACCUAGUGGGCCCAGUGACGAUCGUCGCCCAUCGCCUUGUGUCUGUUGGAGGCCCGGAUAGCUCAGUCGGUAGAGCAGCGGCCGCGCGAUUCGAGGAAGGAGGUCUGAGGAGGUCACUGAAUCGCGCGGCCGCGGGUCCAGGGUUCAAGUCCCUGUUCGGGCCUCCAACAGACUCUGACGAUCCAAAACUGCCCGAGGGGAUCGUUCAAGGCGAGAGCUCGUCUGACGAACGUCGAACUCGCCGUGUGUGUGUAGGAGGCCCGGAUAGCUCAGUCGGUAGAGCAGCGGCCGCGCGAUUCGAGGAAGGAGGUCUGAGGAGGUCACUGAAUCGCGCGGCCGCGGGUCCAGGGUUCAAGUCCCUGUUCGGGCCUCCUACACACUCUGACGAUCCAAAACUGCCCGAGGGGAUCGUUCACGGCGAACUCACGUCGGUGGAGCUAGCGCCUACGGUACUGCCAUCAGUCGGCGUGGACUGUAG
modifications: circular
Consider B2, for which, in the data set on HEK293T cells, the “Fraction of RNA” value worked out at 57±14% and the RNA assembly size is given as 1.0±0.54 μm.

B3: 5× Beetroot: circular RNA comprising 5× Beetroot fused to boxB, SEQ ID NO: 102 (nucleic acid)
chain: AACCAUGCCGACUGAUGGCAGUACCGUAGGCGAAUUCUUGCCAUGUGUAUGUGGGAGGCCCGGAUAGCUCAGUCGGUAGAGCAGCGGCCGGUUAGGCAGAGGUGGGUGGUGUGGAGGAGUAUCUGUCCGGCCGCGGGUCCAGGGUUCAAGUCCCUGUUCGGGCCUCCCACAUACUCUGAUGAUCCAAAACUGCCCGAGGAUCAUUCAUGGCAAACUCGACGUUCGUCAGACUCCUCGCGAUGUCUAUGCGGGAGGCCCGGAUAGCUCAGUCGGUAGAGCAGCGGCCGGUUAGGCAGAGGUGGGUGGUGUGGAGGAGUAUCUGUCCGGCCGCGGGUCCAGGGUUCAAGUCCCUGUUCGGGCCUCCCGCAUAGUCUGAUCAUCCAAAACUGCCCGAGGGGAUGAUUCAUCGCGAAUCGCGACGAUCGUCACUACCGGUGACUCGCUAUCGGUUAUGGCAUGUACAACUUGCGACUUUGCCAUGUGUAUGUGGGAGGCCCGGAUAGCUCAGUCGGUAGAGCAGCGGCCGGUUAGGCAGAGGUGGGUGGUGUGGAGGAGUAUCUGUCCGGCCGCGGGUCCAGGGUUCAAGUCCCUGUUCGGGCCUCCCACAUACUCUGAUGAUCCACGCGUACAUUGGCCCUGAAAAAGGGCAAGCGAGGUACCAUCAUUCAUGGCAAAGUCGCAAGUAUCGGUCAACCUAGUGGGCCCAGUGACGAUCGUCGCCCAUCGCCUUGUGUCUGUUGGAGGCCCGGAUAGCUCAGUCGGUAGAGCAGCGGCCGGUUAGGCAGAGGUGGGUGGUGUGGAGGAGUAUCUGUCCGGCCGCGGGUCCAGGGUUCAAGUCCCUGUUCGGGCCUCCAACAGACUCUGACGAUCCAAAACUGCCCGAGGGGAUCGUUCAAGGCGAGAGCUCGUCUGACGAACGUCGAACUCGCCGUGUGUGUGUAGGAGGCCCGGAUAGCUCAGUCGGUAGAGCAGCGGCCGGUUAGGCAGAGGUGGGUGGUGUGGAGGAGUAUCUGUCCGGCCGCGGGUCCAGGGUUCAAGUCCCUGUUCGGGCCUCCUACACACUCUGACGAUCCAAAACUGCCCGAGGGGAUCGUUCACGGCGAACUCACGUCGGUGGAGCUAGCGCCUACGGUACUGCCAUCAGUCGGCGUGGACUGUAG
modifications: circular
As for B3, in the data set with HEK293T cells, the “Fraction of RNA” value is 27±11% and the RNA assembly size was determined as 0.68±0.25 μm.
